Reference: patent WO2023219147A1

Biological target: human CCR8 (human)
Assay: flow cytometry on CD4-gated tumor-infiltrating cells of ovarian cancer; APC-labeled L263G8 2 ug/mL

Question: How did the positive rate of the FoxP3-positive CCR8-positive fraction turn out when “anti-human CCR8 antibody L263G8 (BioLegend)” was run?
Answer: 46.6%
